In patent US7033773B1, “Screening assays for G protein coupled receptor agonists and antagonists” (The General Hospital Corporation, priority 1997, dated 2006):

Molecular target: T1, human PTH/PTHrP receptor (Homo sapiens, UniProt Q03431)
T1 sequence (Q03431 27-593): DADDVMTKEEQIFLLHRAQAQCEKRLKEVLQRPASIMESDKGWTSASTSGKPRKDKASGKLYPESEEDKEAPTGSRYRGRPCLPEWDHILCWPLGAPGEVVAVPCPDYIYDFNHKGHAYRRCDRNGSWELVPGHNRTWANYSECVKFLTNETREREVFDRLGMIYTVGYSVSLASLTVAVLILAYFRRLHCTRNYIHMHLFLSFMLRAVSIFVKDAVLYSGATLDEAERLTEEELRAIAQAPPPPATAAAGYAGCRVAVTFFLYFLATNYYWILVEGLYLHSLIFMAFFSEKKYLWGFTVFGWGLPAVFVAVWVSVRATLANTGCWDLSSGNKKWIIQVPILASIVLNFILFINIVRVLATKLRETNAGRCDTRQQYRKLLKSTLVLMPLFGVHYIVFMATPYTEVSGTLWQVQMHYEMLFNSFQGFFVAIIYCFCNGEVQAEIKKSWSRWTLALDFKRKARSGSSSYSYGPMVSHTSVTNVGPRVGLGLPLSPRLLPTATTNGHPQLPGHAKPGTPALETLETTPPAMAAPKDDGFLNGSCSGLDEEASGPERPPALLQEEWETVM
Assay: Cellular phosphate uptake in LLC-PK1 cells expressing human PTHR
Assay type: cell-based
Parameters: transfected with a full-length human PTH/PTHrP receptor cDNA; expressed in transfected cells
Conditions: HKRK B28 and HKRK B7 cells; peptides 1000 nM, 6 hr
Procedure: FIG. 8. Regulation of phosphate uptake by PTH in HKRK B7 and HKRK B28 cells. […] Results are expressed as percentage of basal, and each bar represents the mean±SEM of a representative experiment performed in triplicate. Similar results were obtained from at least 5 individual experiments. Cells were seeded into 24-well plates at a density of 2.5×10^5 cells/well and cultured for a further 2 days before study. Twenty four hours before assay, cells were refed with 0.5 ml of DMEM containing 0.1% BSA. The next day, cells were refed with serum-free medium (DMEM+0.1% BSA) containing drugs or peptides, and the incubations were continued at 37° C. under 5% CO2 in air for another 6 hr. Cells then were washed with prewarmed Buffer B without BSA and Na2HPO4 and then were incubated at 37° C. for 5 min in 0.25 ml of the same buffer containing [^32P]orthophosphate (4 uCi/ml) and 0.1 mM Na2HPO4. Phosphate uptake was arrested by adding 1 ml of ice-cold sodium-free “stop buffer” [10 mM HEPES (pH 7.4), 140 mM choline chloride, and 5 mM sodium arsenate], followed by two further washes with same buffer. The drained cell layer then was solubilized in 0.5 ml of Lysis Buffer, and cell-associated radioactivity was determined by Cerenkov counting, as previously described (Guo, J., et al., Endocrinology 136:3884-3891 (1995)).

hPTH(1-31)
maximal activation of phosphate uptake (in words): comparable maximal activation of phosphate uptake
